According to PMC12623541:

Target: androgen receptor (AR) (human (endogenous in LNCaP and C4-2)) (UniProt P10275)
Assay: co-IP; lysates (RIPA buffer) of LNCaP and C4-2 cells transfected with siNC or siKMT2D; immunoprecipitation with primary antibody and Protein A/G agarose at 4 °C, western blot for AR and E3 ubiquitin ligases; which protein was precipitated is not stated for this panel

UniProt P10275, sequence (P10275 whole entry): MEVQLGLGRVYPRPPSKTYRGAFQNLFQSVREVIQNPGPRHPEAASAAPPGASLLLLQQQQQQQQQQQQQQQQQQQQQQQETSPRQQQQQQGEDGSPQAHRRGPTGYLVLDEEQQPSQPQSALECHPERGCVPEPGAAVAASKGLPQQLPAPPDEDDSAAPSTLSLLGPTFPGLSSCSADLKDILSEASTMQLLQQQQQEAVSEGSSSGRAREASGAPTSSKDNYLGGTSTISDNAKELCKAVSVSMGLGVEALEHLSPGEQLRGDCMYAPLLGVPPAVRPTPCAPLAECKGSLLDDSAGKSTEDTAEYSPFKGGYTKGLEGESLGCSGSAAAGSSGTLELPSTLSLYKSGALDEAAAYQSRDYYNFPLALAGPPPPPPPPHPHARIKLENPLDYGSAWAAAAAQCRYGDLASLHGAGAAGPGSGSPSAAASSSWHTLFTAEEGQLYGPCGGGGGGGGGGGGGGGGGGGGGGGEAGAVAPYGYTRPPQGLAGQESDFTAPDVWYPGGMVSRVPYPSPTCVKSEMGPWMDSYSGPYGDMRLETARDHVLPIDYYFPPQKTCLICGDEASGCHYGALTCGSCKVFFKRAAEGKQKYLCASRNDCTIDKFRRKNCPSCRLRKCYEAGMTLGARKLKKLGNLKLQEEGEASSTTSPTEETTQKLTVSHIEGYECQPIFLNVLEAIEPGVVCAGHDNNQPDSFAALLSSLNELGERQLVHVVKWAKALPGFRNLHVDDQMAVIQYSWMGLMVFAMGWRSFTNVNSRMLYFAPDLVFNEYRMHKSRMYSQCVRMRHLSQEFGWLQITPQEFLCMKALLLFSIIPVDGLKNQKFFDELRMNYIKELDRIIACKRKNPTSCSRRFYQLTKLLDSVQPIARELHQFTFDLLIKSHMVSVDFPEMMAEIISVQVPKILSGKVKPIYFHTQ

Speckle Type BTB/POZ protein (SPOP) (from UniProt O43791 1-374) (natural protein)
fold change of SPOP bound to AR after KMT2D knockdown against control (C4-2 cells): 1.57 fold
fold change of SPOP bound to AR after KMT2D knockdown against control (LNCaP cells): 1.41 fold
